Laboratory results: US20030208060A1

Tests used:
[1] = molecular target: triglyceride-rich lipoproteins; assay: co-incubation with TGRLP, cell binding and ligand blots
[2] = molecular target: trypsinized VLDL Sf100-400, devoid of apoE (tryp-VLDL) (human) (UniProt P04114); assay: inhibition of 125I-tryp-VLDL1 binding to THP-1 macrophages, 4 °C, LpL 1.6 µg/ml
[3] = molecular target: trypsinized VLDL2 (tryp-VLDL2) (human) (UniProt P04114); assay: inhibition of 125I-tryp-VLDL2 binding to THP-1 macrophages, 4 °C, LpL 1.0 µg/ml

B1: lipoprotein lipase (enzyme, UniProt P06858 28-475, looked up, species assumed)
Lipoprotein lipase: ADQRRDFIDIESKFALRTPEDTAEDTCHLIPGVAESVATCHFNHSSKTFMVIHGWTVTGMYESWVPKLVAALYKREPDSNVIVVDWLSRAQEHYPVSAGYTKLVGQDVARFINWMEEEFNYPLDNVHLLGYSLGAHAAGIAGSLTNKKVNRITGLDPAGPNFEYAEAPSRLSPDDADFVDVLHTFTRGSPGRSIGIQKPVGHVDIYPNGGTFQPGCNIGEAIRVIAERGLGDVDQLVKCSHERSIHLFIDSLLNEENPSKAYRCSSKEAFEKGLCLSCRKNRCNNLGYEINKVRAKRSSKMYLKTRSQMPYKVFHYQVKIHFSGTESETHTNQAFEISLYGTVAESENIPFTLPEVSTNKTYSFLIYTEVDIGELLMLKLKWKSDSYFSWSDWWSSPGFAIQKIRVKAGETQKKVIFCSREKVSHLQKGKAPAVFVKCHDKSLNKKSG
percent inhibition of specific binding [1]: 25%
Percent Inhibition [2]: 26%
Percent Inhibition [3]: 17%
